From publication PMC6722078, “Defects in t^6A tRNA modification due to GON7 and YRDC mutations lead to Galloway-Mowat syndrome” (Nature Communications, 2019)

T1: LAGE3 (full-length, subunit of the recombinant GON7/LAGE3/OSGEP complex) (human, UniProt Q14657 1-143)
T1 construct: LAGE3, human, KEOPS subunit (homolog of Pcc1); full-length protein used for all structural work; no electron density for the 60 N-terminal residues; source: recombinant, co-expressed with the other KEOPS subunits, purified (size exclusion chromatography, NiIDA); details in Supplementary Methods
T1 sequence (looked up): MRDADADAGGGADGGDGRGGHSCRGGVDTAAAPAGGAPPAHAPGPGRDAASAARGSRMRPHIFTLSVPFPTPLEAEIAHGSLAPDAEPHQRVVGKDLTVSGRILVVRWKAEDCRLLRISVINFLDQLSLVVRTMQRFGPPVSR


Target: T1, LAGE3 (full-length, subunit of the …)
Assay: SEC-SAXS; SAXS on samples eluting from an online size exclusion HPLC column; 20 mM MES pH 6.5, 200 mM NaCl, 5 mM 2-mercaptoethanol; purified recombinant GON7/LAGE3/OSGEP complex
Conditions: both partners purified

Row | stoichiometry N | Binder
1 | 1 | GON7 (full-length, subunit of the recombinant GON7/LAGE3/OSGEP complex) (natural protein, human, UniProt Q9BXV9 1-100, looked up, GON7 (alias C14orf142), human, fifth subunit of the KEOPS complex; full-length protein used for all structural work; only residues 1-20 and 25-50 are seen in the crystal; also called C14orf142; GON7-his; source: recombinant, co-expressed with the other KEOPS subunits, purified (size exclusion chromatography, NiIDA); details in Supplementary Methods) MELLGEYVGQEGKPQKLRVSCEAPGDGDPFQGLLSGVAQMKDMVTELFDPLVQGEVQHRVAAAPDEDLDGDDEDDAEDENNIDNRTNFDGPSAKRPKTPS
2 | 1 | OSGEP (full-length, subunit of the recombinant GON7/LAGE3/OSGEP complex) (enzyme, human, UniProt Q9NPF4 1-335, looked up, OSGEP, human, catalytic subunit of the KEOPS complex (homolog of Kae1); full-length protein used for all structural work; source: recombinant, co-expressed with the other KEOPS subunits, purified (size exclusion chromatography, NiIDA); details in Supplementary Methods) MPAVLGFEGSANKIGVGVVRDGKVLANPRRTYVTPPGTGFLPGDTARHHRAVILDLLQEALTESGLTSQDIDCIAYTKGPGMGAPLVSVAVVARTVAQLWNKPLVGVNHCIGHIEMGRLITGATSPTVLYVSGGNTQVIAYSEHRYRIFGETIDIAVGNCLDRFARVLKISNDPSPGYNIEQMAKRGKKLVELPYTVKGMDVSFSGILSFIEDVAHRMLATGECTPEDLCFSLQETVFAMLVEITERAMAHCGSQEALIVGGVGCNVRLQEMMATMCQERGARLFATDERFCIDNGAMIAQAGWEMFRAGHRTPLSDSGVTQRYRTDEVEVTWRD
